Data as given in paper PMC5173322, “Neurodegenerative disease mutations in TREM2 reveal a functional surface and distinct loss-of-function mechanisms” (eLife, 2016).
Changes are numbered by the printed parent chain. Numbers in names are those of the source.

B1: human TREM2 ectodomain Y38C (domain or fragment, UniProt Q9NZC2 19-134, looked up)
chain: HNTTVFQGVAGQSLQVSCPCDSMKHWGRRKAWCRQLGEKGPCQRVVSTHNLWLLSFLRRWNGSTAITDDTLGGTLTITLRNLQPHDAGLYQCQSLHGSEADTLRKVLVEVLADPLD
notes: TREM2, human, ectodomain, limits as the WT ectodomain (amino acids 19-134), Nasu-Hakola disease mutation Y38C; it was detected by anti-6His Western blot; also called NHD mutant Y38C; source: Freestyle 293F cells, transfected, secreted; harvested for preparative SEC; not shown: His6, C-terminal, kept
B2: human TREM2 ectodomain V126G (domain or fragment, UniProt Q9NZC2 19-134, looked up)
chain: B1 chain with C20Y, V108G
notes: TREM2, human, ectodomain, limits as the WT ectodomain (amino acids 19-134), Nasu-Hakola disease mutation V126G; it was detected by anti-6His Western blot; also called NHD mutant V126G; source: Freestyle 293F cells, transfected, secreted; harvested for preparative SEC; not shown: His6, C-terminal, kept
B3: human TREM2 ectodomain T66M (domain or fragment, UniProt Q9NZC2 19-134, looked up)
chain: B1 chain with C20Y, T48M
notes: TREM2, human, ectodomain, limits as the WT ectodomain (amino acids 19-134), Nasu-Hakola disease mutation T66M; it was detected by anti-6His Western blot; also called NHD mutant T66M; source: Freestyle 293F cells, transfected, secreted; harvested for preparative SEC; not shown: His6, C-terminal, kept

Molecular target: the molecule itself
Assay: SEC; preparative SEC of NHD mutant ectodomains harvested from 293F suspension cells; fractions analysed by anti-6His Western blot

Q: Does B1 bind?
A: Result: binds

Q: Does B2 bind?
A: Result: binds

Q: Does B3 bind?
A: Result: binds
